# Results as given in paper PMC4370877.
# Target: recombinant Small basic protein (rSbp) (S. epidermidis)
# Assay: ELISA; competition; rSbp (150 μg/ml in PBS) pre-incubated with soluble rDomain-B (0.4-100 μg/ml) for 1 h at 4°C, then loaded into rDomain-B-coated wells; inhibition = (1 - A405 with rDomain-B / A405 without) x 100
substance,measurement,value
recombinantly expressed Aap domain-B (rDomain-B) (domain or fragment),percent inhibition of rSbp binding to immobilized rDomain-B,80%
